# B1: 310A (antibody, V domains shown)
# VH: EVQLVESGGGLVRPGESLRLSCVASGFSVSDNYMSWVRQAPGKGLQWVSVIYSGGTTFYTDSVKGRFTISRDKSKNTLFLQMNSLRAEDTAVYFCTRDPSQYYDSRGHYYQTFTPSFDSWGQGTLVTVSS
# VL: DIQMTQSPSVMSASVGDRVTITCRASQDISDYLAWFQQKPGKVPKRLIYAASSLQNGVPSRFSGSGSGTEFTLTISSLQPEDFATYYCLQHDTYPLTFGGGTKVEIK
# B2: 246A (antibody, V domains shown)
# VH: EVHLVESGGGLVKPGGSLRLSCAASGFTFSRYGMHWVRQAPGKGLEWVSSIVIRSDYKYYADSVKGRFTISRDNAKNSLYLQMNSLRADDTAVYYCARDLVEPGITPVGCDYWGRGTLVTVSS
# VL: SNELTQAPSVSVSPGQTARITCFGDALANQYSYWYQRKPGQAPVLVIYKDSERPSGIPQRFSASNSGTTVTLTITGVQAEDEADYFCQSADSTGIYKVFGGGTKLTVL
# B3: NORO-168.2 (antibody, V domains shown)
# VH: QVQLVESGGGVVQPGRSLRLSCAASGFTFSSYAMHWVRQAPGKGLEWVAVISYDGSNKYYADSVKGRFTISRDNSKNTLYLQMNSLRAEDTAVYYCARSVIGYYYYGMDVWGQGTLVTVSS
# VL: QPVLTQPPSASASLGASVTLTCTLSSGYSNYKVDWYQQRPGKGPRFVMRVGTGGIVGSKGDGIPDRFSVLGSGLNRYLTIKNIQEEDESDYHCGADHGSGILFGGGTKLTVL
# B4: 327A (antibody, V domains shown)
# VH: QVQLEVSGGGLVKPGGSLRLSCAASGFTFTDYYMSWIRQAPGKGLEWVAYISGIMSSTKYADSVKGRFTISRDNGKNSVYLQMNSLTAEDTAVYYCARERVEPPSAVTDFWGQGTLVTVSS
# VL: QSVLTQSPSVSGAPGQRVTISCTGTSSNIGAGYDVHWYQQFPGTAPKLLISHNTNRPSGVPDRFSGSKSGTSASLAITGLQAEDEADYYCQSFDSSLRGSRVFGGGTKLTVL
# B5: 232 (antibody, V domains shown)
# VH: QVQLKQWGAGLLKSSETLSLTCAFNGNSFGAFYWSWIRLSPGKGLEWIGEVNYLGGADYNPSLKSRVTMSADTSKRQFSLSLKSVTAADTGVYFCARGRPHDYSPGSYSRPRRYYGLDVWGQGTTVTVSS
# VL: EIVLTQSPATLSLSPGDSATLSCRASQAVSTTYLAWYQQTRGQAPRLLIHGTYTRAIGIPDKFSGTGSGTDFTLTISGLAPEDFAVYYCQQYSSSPYTFGQGTKIEIT
# What was measured:
# GI.3 Protruding = GI.3 Protruding (norovirus GI.3); experiment: ELISA
# GII.13 = GII.13 (norovirus GII.13); experiment: ELISA
# GII.17 = GII.17 (norovirus GII.17); experiment: ELISA
# GI.3 [1] = biological target: GI.3 (norovirus GI.3); experiment: ELISA
# GII.3 = GII.3 (norovirus GII.3); experiment: ELISA
# GI.3 [2] = biological target: GI.3 (norovirus GI.3); experiment: VLP-PGM blockade
# Protruding domain = experiment: ELISA
# GII.4 Houston 2002 VLP [3] = biological target: T1, GII.4 Houston 2002 VLP (UniProt P54635 1-539); experiment: VLP blockade
# GII.4 Sydney 2012 VLP = GII.4 Sydney 2012 VLP (UniProt P54635 1-538); experiment: VLP-PGM blockade
# GII.6 (AF414410) VLPs [4] = biological target: GII.6 (AF414410) VLPs (norovirus GII.6); experiment: ELISA
# GI.2 (AF435807) VLPs = GI.2 (AF435807) VLPs (norovirus GI.2); experiment: ELISA
# [5] = biological target: T2, GII.4 Sydney 2012 shell (S) domain (UniProt P54635 1-221); experiment: ELISA
# T2 chain: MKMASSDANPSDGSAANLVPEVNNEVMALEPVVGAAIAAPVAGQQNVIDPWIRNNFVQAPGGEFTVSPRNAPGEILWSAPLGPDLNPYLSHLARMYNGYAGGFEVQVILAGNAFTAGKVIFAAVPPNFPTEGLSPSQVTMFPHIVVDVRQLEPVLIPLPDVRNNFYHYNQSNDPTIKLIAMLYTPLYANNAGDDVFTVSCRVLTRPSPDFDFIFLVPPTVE
# GII.6 (AF414410) VLPs [6] = biological target: GII.6 (AF414410) VLPs (norovirus GII.6); experiment: VLP-PGM blockade
# GII.4 Houston 2002 VLP [7] = biological target: T1, GII.4 Houston 2002 VLP; experiment: ELISA binding
binder,measurement,setting,value
B1,EC50,GI.3 Protruding,60 nM
same,EC50,GII.13,53 nM
same,EC50,GII.17,40 nM
same,EC50,GI.3 [1],24 nM
same,EC50,GII.3,15 nM
same,EC50,GI.3 [2],192 nM
B2,EC50,Protruding domain,0.9 µg/mL
same,EC50,GII.4 Houston 2002 VLP [3],2.1 µg/mL
same,EC50,GII.4 Sydney 2012 VLP,7.4 µg/mL
B3,EC50,GII.6 (AF414410) VLPs [4],198 nM
same,EC50,GI.2 (AF435807) VLPs,265 nM
same,EC50,[5],78 nM
same,EC50,GII.6 (AF414410) VLPs [6],7 nM
B4,EC50,Protruding domain,0.5 µg/mL
same,EC50,GII.4 Houston 2002 VLP [3],2.2 µg/mL
same,EC50,GII.4 Houston 2002 VLP [7],0.3 µg/mL
same,EC50,GII.4 Sydney 2012 VLP,5 µg/mL
B5,EC50,GII.4 Sydney 2012 VLP,4.4 µg/mL

# Source: patent US20210324050A1 (published 2021)
